Measurements from US20250339569A1 (3B PHARMACEUTICALS, published 2025).
Starred links: 1 amine or outer side, 2 acyl side, 3 side chain; linkers in the order of their positions; H or OH if unused. Positions of bridges follow the written chain, without caps; N, C: chain ends. Non-standard residues stand in square brackets, D forms with d. Groups on a side chain read outwards from the residue. Primed or numbered codes have the meaning given here. ξ: configuration not given here. *: point of attachment. Af3(HySuc) = 3-amino-L-phenylalanine acylated on the ring amine with 2-(3,6-dioxo-1,2,3,6-tetrahydropyridazin-4-yl)acetic acid, O=C(Cc1cc(=O)[nH][nH]c1=O)Nc1cccc(C[C@H](N[*:1])C(=O)[*:2])c1; af3(ac-glu) = lower case: 3-amino-D-phenylalanine, ring amine acylated with N-acetyl-D-glutamic acid, CC(=O)N[C@H](CCC(=O)[*:3])C(=O)Nc1cccc(C[C@@H](N[*:1])C(=O)[*:2])c1; af3(ac-asp) = lower case: 3-amino-D-phenylalanine, ring amine acylated with N-acetyl-D-aspartic acid, CC(=O)N[C@H](CC(=O)[*:3])C(=O)Nc1cccc(C[C@@H](N[*:1])C(=O)[*:2])c1; Af3(MSAc) = 3-aminophenylalanine with 2-methanesulfonylacetyl on the ring amine, CS(=O)(=O)CC(=O)Nc1cccc(C[C@H](N[*:1])C(=O)[*:2])c1; Af3(Iva) = 3-aminophenylalanine with isovaleryl on the ring amine, CC(C)CC(=O)Nc1cccc(C[C@H](N[*:1])C(=O)[*:2])c1; Af3(Ac-Asp) = 3-aminophenylalanine acylated on the ring amine with N-acetyl-aspartic acid; DOTA(In) = O=C1CN2CCN3CCN(CC(=O)*)CCN(CC2)CC(=O)[O][In]([O]1)[O]C(=O)C3; APAc″ = 2-(4-(amino)piperidin-1-yl)acetic acid, NC1CCN(CC(=O)*)CC1; DOTA = O=C(O)CN1CCN(CC(=O)O)CCN(CC(=O)*)CCN(CC(=O)O)CC1; Trp(5-Cl) = N[C@@H](Cc1c[nH]c2ccc(Cl)cc12)C(=O)O; Phe(3,4-Cl2) = N[C@@H](Cc1ccc(Cl)c(Cl)c1)C(=O)O; Phe(3-CF3) = N[C@@H](Cc1cccc(C(F)(F)F)c1)C(=O)O; ξTrp(7-Me) = Cc1cccc2c(CC(N)C(=O)O)c[nH]c12; ξTrp(1-Me) = Cn1cc(CC(N)C(=O)O)c2ccccc21; Ttds(3) = NCCCOCCOCCOCCCNC(=O)CCC(=O)*; dmo = (R)-dimethylornithine (D form); mXylylene = c1cc(C[*:1])cc(C[*:2])c1; Orn(Me2) = CN(C)CCC[C@H](N)C(=O)O; Isovaleryl = CC(C)CC(=O)*; dPip = O=C(O)[C@H]1CCCCN1; hSer = N[C@@H](CCO)C(=O)O; Ac6c = NC1(C(=O)O)CCCCC1; Nle = CCCC[C@H](N)C(=O)O; dNMeA = CN[C@H](C)C(=O)O; 4Amc = not defined here; APAc = not defined here; Apr = not defined here; Dap = NC[C@H](N)C(=O)O; AEEA = NCCOCCOCC(=O)O; Sar = CNCC(=O)O

B1: 3BP-3289 (peptide)
peptide: Ac-VYCE[Sar]D[Trp(5-Cl)]LTWQC-NH2
modifications: linker 3-12 via mXylylene
SMILES: CC(=O)N[C@H](C(=O)N[C@@H](Cc1ccc(O)cc1)C(=O)N[C@H]1CSCc2cccc(c2)CSC[C@@H](C(N)=O)NC(=O)[C@H](CCC(N)=O)NC(=O)[C@H](Cc2c[nH]c3ccccc23)NC(=O)[C@H]([C@@H](C)O)NC(=O)[C@H](CC(C)C)NC(=O)[C@H](Cc2c[nH]c3ccc(Cl)cc23)NC(=O)[C@H](CC(=O)O)NC(=O)CN(C)C(=O)[C@H](CCC(=O)O)NC1=O)C(C)C
B2: 3BP-4253 (peptide)
peptide: {DOTA}-DCE[dP]DWLTW[Dap]C-NH2
modifications: lactam 10-1; linker 2-11 via mXylylene
SMILES: CC(C)C[C@@H]1NC(=O)[C@H](Cc2c[nH]c3ccccc23)NC(=O)[C@H](CC(=O)O)NC(=O)[C@H]2CCCN2C(=O)[C@H](CCC(=O)O)NC(=O)[C@@H]2CSCc3cccc(c3)CSC[C@@H](C(N)=O)NC(=O)[C@H](CNC(=O)C[C@H](NC(=O)CN3CCN(CC(=O)O)CCN(CC(=O)O)CCN(CC(=O)O)CC3)C(=O)N2)NC(=O)[C@H](Cc2c[nH]c3ccccc23)NC(=O)[C@H]([C@@H](C)O)NC1=O
B3: 3BP-3859 (peptide)
peptide: {DOTA}-YCE[dP]DWLTWSC-NH2
modifications: linker 2-11 via mXylylene
SMILES: CC(C)C[C@@H]1NC(=O)[C@H](Cc2c[nH]c3ccccc23)NC(=O)[C@H](CC(=O)O)NC(=O)[C@H]2CCCN2C(=O)[C@H](CCC(=O)O)NC(=O)[C@@H](NC(=O)[C@H](Cc2ccc(O)cc2)NC(=O)CN2CCN(CC(=O)O)CCN(CC(=O)O)CCN(CC(=O)O)CC2)CSCc2cccc(c2)CSC[C@@H](C(N)=O)NC(=O)[C@H](CO)NC(=O)[C@H](Cc2c[nH]c3ccccc23)NC(=O)[C@H]([C@@H](C)O)NC1=O
B4: 3BP-3283 (peptide)
peptide: Ac-VYCE[dPip]DWLTWAC-NH2
modifications: linker 3-12 via mXylylene
SMILES: CC(=O)N[C@H](C(=O)N[C@@H](Cc1ccc(O)cc1)C(=O)N[C@H]1CSCc2cccc(c2)CSC[C@@H](C(N)=O)NC(=O)[C@H](C)NC(=O)[C@H](Cc2c[nH]c3ccccc23)NC(=O)[C@H]([C@@H](C)O)NC(=O)[C@H](CC(C)C)NC(=O)[C@H](Cc2c[nH]c3ccccc23)NC(=O)[C@H](CC(=O)O)NC(=O)[C@H]2CCCCN2C(=O)[C@H](CCC(=O)O)NC1=O)C(C)C
B5: 3BP-3281 (peptide)
peptide: Ac-VYCE[dNMeA]DWLTWAC-NH2
modifications: linker 3-12 via mXylylene
SMILES: CC(=O)N[C@H](C(=O)N[C@@H](Cc1ccc(O)cc1)C(=O)N[C@H]1CSCc2cccc(c2)CSC[C@@H](C(N)=O)NC(=O)[C@H](C)NC(=O)[C@H](Cc2c[nH]c3ccccc23)NC(=O)[C@H]([C@@H](C)O)NC(=O)[C@H](CC(C)C)NC(=O)[C@H](Cc2c[nH]c3ccccc23)NC(=O)[C@H](CC(=O)O)NC(=O)[C@@H](C)N(C)C(=O)[C@H](CCC(=O)O)NC1=O)C(C)C

Target: T1, Fc-fusion protein of human carbonic anhydrase IX (human, UniProt Q16790 38-414)
Experiment: SPR, captured hCAIX-Fc; pKD category A: >8.0
Protocol: (§1) Stock solutions of test compounds were prepared by dissolving each compound in DMSO. DMSO stock solution were diluted 1:1000 in Running Buffer without DMSO. […] SPR binding analyses were performed in Single Cycle Kinetic (SCK) mode at 25° C.
(§2) For each test compound, SPR raw data in the form of resonance units (RU) were plotted as sensorgrams using the Biacore™ T200 control software. The signal from the blank sensorgram was subtracted from that of the test compound sensorgram (blank corrected). The blank corrected sensorgram was corrected for baseline drift by subtracting the sensorgram of a SCK run without the test compound (running buffer only). […] Raw data and fit results were imported as text files in IDBS. The pKD value (negative decadic logarithm of dissociation constant) was calculated in the IDBS excel template.

Row | Binder | pKD [pkd]
1 | {DOTA-APAc″}-VYCE[dP]D[Af3(HySuc)]LTWSC-NH2 (linker 3-12 via mXylylene) [3BP-4322] | > 8
2 | {DOTA-4Amc}-YCE[dP]DWLTWSC-NH2 (linker 2-11 via mXylylene; reading uncertain) [3BP-3868] | > 8
3 | B1 | > 8
4 | B2 | > 8
5 | {DOTA-APAc″}-VYCE[dP]D[Af3(Ac-Asp)]LTWSC-NH2 (linker 3-12 via mXylylene) [3BP-4363] | > 8
6 | {DOTA-APAc″}-VYCE[dP]D[af3(ac-asp)]LTWSC-NH2 (linker 3-12 via mXylylene; not fully specified) [3BP-4364] | > 8
7 | {DOTA-Ttds(3)}-[Nle]YCE[dP]DWLTWSC-NH2 (linker 3-12 via mXylylene) [3BP-3870] | > 8
8 | {DOTA(In)}-YCE[dP]KWLEWSC-NH2 (linker 2-11 via mXylylene; lactam 5-8; also: indium complexed by DOTA) [3BP-4053] | > 8
9 | {DOTA-APAc″}-VYCE[dP]D[ξTrp(1-Me)]LTWSC-NH2 (linker 3-12 via mXylylene; not fully specified) [3BP-4144] | > 8
10 | {DOTA-APAc}-VYCE[dP]D[Phe(3,4-Cl2)]LTWSC-NH2 (linker 3-12 via mXylylene; not fully specified; reading uncertain) [3BP-4133] | > 8
11 | B3 | > 8
12 | Isovaleryl-YCE[dP]DWLTWE([Apr-AEEA-DOTA])C-NH2 (linker 2-11 via 3MeBn; reading uncertain) [3BP-3740] | > 8
13 | B4 | > 8
14 | {DOTA-APAc}-VYC[hSer][dP]DWLTWSC-NH2 (linker 3-12 via mXylylene; reading uncertain) [3BP-4101] | > 8
15 | {DOTA-APAc}-VYCE[dP]DW[Ac6c]TWSC-NH2 (linker 3-12 via mXylylene; reading uncertain) [3BP-3584] | > 8
16 | Ac-K(DOTA)VYCE[dP]DWLTWSC-NH2 (linker 4-13 via 3MeBn) [3BP-3840] | > 8
17 | {DOTA-APAc″}-VYCE[dP]D[Af3(Iva)]LTWSC-NH2 (linker 3-12 via mXylylene) [3BP-4236] | > 8
18 | B5 | > 8
19 | {DOTA-APAc}-VYCE[dmo]DWLTWSC-NH2 (linker 3-12 via mXylylene; reading uncertain) [3BP-4097] | > 8
20 | {DOTA-APAc″}-VYCE[dP]D[Af3(MSAc)]LTWSC-NH2 (linker 3-12 via mXylylene) [3BP-4242] | > 8
21 | {DOTA-APAc}-VYC[Orn(Me2)][dP]DWLTWSC-NH2 (linker 3-12 via mXylylene; reading uncertain) [3BP-4096] | > 8
22 | {DOTA-APAc}-V[Orn(Me2)]CE[dP]DWLTWSC-NH2 (linker 3-12 via mXylylene; reading uncertain) [3BP-4095] | > 8
23 | {DOTA-APAc″}-VYCE[dP]D[ξTrp(7-Me)]LTWSC-NH2 (linker 3-12 via mXylylene; not fully specified) [3BP-4158] | > 8
24 | {DOTA-APAc}-VYCE[dP]D[Phe(3-CF3)]LTWSC-NH2 (linker 3-12 via mXylylene; not fully specified; reading uncertain) [3BP-4135] | > 8
25 | {DOTA-APAc″}-VYCE[dP]D[af3(ac-glu)]LTWSC-NH2 (linker 3-12 via mXylylene; not fully specified) [3BP-4362] | > 8

Target: T1, Fc-fusion protein of human carbonic …
Experiment: SPR, captured hCAIX-Fc; t1/2 category B: 5.1-15.0 min
Protocol: as §1, §2

Row | Binder | t1/2 (half-life of the complex, SPR) [min]
26 | {DOTA-APAc″}-VYCE[dP]D[Af3(HySuc)]LTWSC-NH2 (linker 3-12 via mXylylene) [3BP-4322] | 5.1 to 15
27 | {DOTA-4Amc}-YCE[dP]DWLTWSC-NH2 (linker 2-11 via mXylylene; reading uncertain) [3BP-3868] | 5.1 to 15
28 | B1 | 5.1 to 15
29 | B2 | 5.1 to 15
30 | {DOTA-APAc″}-VYCE[dP]D[Af3(Ac-Asp)]LTWSC-NH2 (linker 3-12 via mXylylene) [3BP-4363] | 5.1 to 15
31 | {DOTA-APAc″}-VYCE[dP]D[af3(ac-asp)]LTWSC-NH2 (linker 3-12 via mXylylene; not fully specified) [3BP-4364] | 5.1 to 15
32 | {DOTA-Ttds(3)}-[Nle]YCE[dP]DWLTWSC-NH2 (linker 3-12 via mXylylene) [3BP-3870] | 5.1 to 15
33 | {DOTA(In)}-YCE[dP]KWLEWSC-NH2 (linker 2-11 via mXylylene; lactam 5-8; also: indium complexed by DOTA) [3BP-4053] | 5.1 to 15
34 | {DOTA-APAc″}-VYCE[dP]D[ξTrp(1-Me)]LTWSC-NH2 (linker 3-12 via mXylylene; not fully specified) [3BP-4144] | 5.1 to 15
35 | {DOTA-APAc}-VYCE[dP]D[Phe(3,4-Cl2)]LTWSC-NH2 (linker 3-12 via mXylylene; not fully specified; reading uncertain) [3BP-4133] | 5.1 to 15
36 | B3 | 5.1 to 15
37 | Isovaleryl-YCE[dP]DWLTWE([Apr-AEEA-DOTA])C-NH2 (linker 2-11 via 3MeBn; reading uncertain) [3BP-3740] | 5.1 to 15
38 | B4 | 5.1 to 15
39 | {DOTA-APAc}-VYC[hSer][dP]DWLTWSC-NH2 (linker 3-12 via mXylylene; reading uncertain) [3BP-4101] | 5.1 to 15
40 | {DOTA-APAc}-VYCE[dP]DW[Ac6c]TWSC-NH2 (linker 3-12 via mXylylene; reading uncertain) [3BP-3584] | 5.1 to 15
41 | Ac-K(DOTA)VYCE[dP]DWLTWSC-NH2 (linker 4-13 via 3MeBn) [3BP-3840] | 5.1 to 15
42 | {DOTA-APAc″}-VYCE[dP]D[Af3(Iva)]LTWSC-NH2 (linker 3-12 via mXylylene) [3BP-4236] | 5.1 to 15
43 | B5 | 5.1 to 15
44 | {DOTA-APAc}-VYCE[dmo]DWLTWSC-NH2 (linker 3-12 via mXylylene; reading uncertain) [3BP-4097] | 5.1 to 15
45 | {DOTA-APAc″}-VYCE[dP]D[Af3(MSAc)]LTWSC-NH2 (linker 3-12 via mXylylene) [3BP-4242] | 5.1 to 15
46 | {DOTA-APAc}-VYC[Orn(Me2)][dP]DWLTWSC-NH2 (linker 3-12 via mXylylene; reading uncertain) [3BP-4096] | 5.1 to 15
47 | {DOTA-APAc}-V[Orn(Me2)]CE[dP]DWLTWSC-NH2 (linker 3-12 via mXylylene; reading uncertain) [3BP-4095] | 5.1 to 15
48 | {DOTA-APAc″}-VYCE[dP]D[ξTrp(7-Me)]LTWSC-NH2 (linker 3-12 via mXylylene; not fully specified) [3BP-4158] | 5.1 to 15
49 | {DOTA-APAc}-VYCE[dP]D[Phe(3-CF3)]LTWSC-NH2 (linker 3-12 via mXylylene; not fully specified; reading uncertain) [3BP-4135] | 5.1 to 15
50 | {DOTA-APAc″}-VYCE[dP]D[af3(ac-glu)]LTWSC-NH2 (linker 3-12 via mXylylene; not fully specified) [3BP-4362] | 5.1 to 15
